For assay [1], the target named is T1, His-tagged human HVEM (human, UniProt Q92956 39-202, limits assumed).
T1 construct: Analyte of the BLI assay, 200 nM in PBS; not shown: His tag
T1 sequence (looked up): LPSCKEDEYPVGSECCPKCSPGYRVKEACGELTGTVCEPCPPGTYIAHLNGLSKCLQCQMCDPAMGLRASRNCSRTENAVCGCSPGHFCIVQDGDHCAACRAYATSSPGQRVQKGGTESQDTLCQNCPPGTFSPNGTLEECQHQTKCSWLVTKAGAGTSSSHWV
In words: BLI OctetRed96, mAb captured, 200 nM His-HVEM. Put shortly:
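Kinetics (kon, koff, KD) were fitted from association in 200 nM His-HVEM in PBS and dissociation in PBS buffer. The mouse antibodies had been captured directly from culture supernatant onto anti-mouse IgG Fc sensors.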

In assay [2] the target is T2, Human HEVM recombinant protein (Sino Biological, 10334-H02H) (human, UniProt Q92956 39-202).
T2 construct: construct known only by catalogue number; also called HVEM; human HVEM
T2 sequence (looked up): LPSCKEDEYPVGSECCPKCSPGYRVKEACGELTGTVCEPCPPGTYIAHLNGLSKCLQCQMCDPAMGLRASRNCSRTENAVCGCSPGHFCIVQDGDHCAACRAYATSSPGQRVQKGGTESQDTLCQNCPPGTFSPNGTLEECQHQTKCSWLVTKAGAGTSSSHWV
In words: competition ELISA, competitor BTLA-His. As for the experimental part: (§1) The competitive activity of HVEM antibody to BTLA or LIGHT was evaluated with ELISA-based competitive assay. Briefly Human HEVM recombinant protein (Sino Biological, 10334-H02H, 4 ug/ml, 100 ul/well) was coated to ELISA plate (Thermo Scientific, 469949, 4C overnight). A pre-mixture of HVEM antibody clone with seral dilution and 400 nM BTLA-His (R&D systems, 9235-BT-050) or LIGHT-His (SinoBiological, 10386-H07H) recombinant protein was made and added to the ELISA plate after blocking with 3% BSA (200 ul/well, RT 2 Hr) for 1 Hr at RT. The serial dilutions of HVEM antibody clone involve 7 different concentrations, with a 3-fold dilution performed start from 100 nM for BTLA or 325 nM for LIGHT competitive assay. The concentration was the final concentration. Plate was washed with PBST; diluted HRP-anti-His (Biolegend, 652504, 1:1000) with PBS containing 5% FBS was added 100 ul per well for 1 Hr at RT. TMB substrate (KPL, 52-00-00) 100 ul per well after washing and incubate at room temperature for 15 minutes; then stop the development by adding 100 ul stop solution (KPL, 50-85-06). Plate was read at 450 nm. The IC50 was calculated using GraphPad Prism software (GraphPad Software, Inc. San Diego, CA, USA).
A general note: In an ELISA, binding on a coated surface is turned into a signal by an enzyme label.

The target of assay [3] is T3, cynomolgus monkey HVEM (cynomolgus monkey, UniProt A0A2K5W0R1 39-203).
T3 sequence: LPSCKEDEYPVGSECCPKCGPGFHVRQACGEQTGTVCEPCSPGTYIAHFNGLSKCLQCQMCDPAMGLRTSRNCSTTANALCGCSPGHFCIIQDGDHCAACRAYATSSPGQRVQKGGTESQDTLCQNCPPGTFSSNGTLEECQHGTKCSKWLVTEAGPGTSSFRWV
In words: ELISA.

Assay [4] concerns the target T4, human HVEM (human, UniProt Q92956 39-202, limits assumed).
T4 sequence (looked up): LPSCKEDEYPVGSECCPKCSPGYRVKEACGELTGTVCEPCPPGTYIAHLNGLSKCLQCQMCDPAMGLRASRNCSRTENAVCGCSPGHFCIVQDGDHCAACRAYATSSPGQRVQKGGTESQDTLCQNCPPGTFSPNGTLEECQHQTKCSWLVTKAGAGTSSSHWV
In words: ELISA.

Assay [5] deals with T5, murine HVEM (murine, UniProt Q80WM9 39-206, limits assumed).
T5 construct: also called Mouse
T5 sequence (looked up): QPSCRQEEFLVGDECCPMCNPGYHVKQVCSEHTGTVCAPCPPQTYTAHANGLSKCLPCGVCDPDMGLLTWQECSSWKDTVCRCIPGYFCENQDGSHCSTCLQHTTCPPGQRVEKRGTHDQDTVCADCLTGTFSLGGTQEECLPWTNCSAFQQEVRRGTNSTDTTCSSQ
In words: ELISA.

For assay [6], the target named is T2, Human HEVM recombinant protein (Sino …). In words: competition ELISA, competitor LIGHT-His. On the procedure: as §1

B1: Ab_028 (H5S15-33A29A) (antibody, V domains shown)
VH: QVQLKQSGPGLVQPSQSLSITCTVSGFSLTTYGVHWVRQSPGKGLEWLGVIWSGGNTDYNPAFISRLSISKDNSKSQVFFKMNTLQASDTAIYYCARRGYNKGYAMDYWGQGTSFTVSS
VL: EIVLTQSPALMTASPGEKVTITCSVSSTISSRNLHWYQQKSEASPKPWIYGTSNLASGVPVRFSGSGSGTSYSLTISSMEAEDAATYYCQQWNSYPLTFGSGTKLEIK
notes: also called Ab_28
In general, Kd refers to the free concentration of one partner at which half of the binding sites on the other are occupied at equilibrium, for simple one-to-one binding. A word on the koff: it is a measure of how fast the partners let go of each other. What is called kon is a measure of how fast the partners come together. The IC50 is the point on the concentration scale where inhibition reaches its midpoint. Turning to B1, in assay [1], the Kd was determined as 6.9 nM, the koff was determined as 0.00266 s⁻¹ and the kon stood at 386000 M⁻¹ s⁻¹. The IC50 in assay [2] amounted to 1.4 nM. In assay [3], the ELISA signal was determined as 2.19. Besides, in assay [4], the ELISA signal is 3.16. The molecule also yielded an ELISA signal in assay [5] of 0.05.

B2: Ab_054 (H5S19-21A17C) (antibody, V domains shown)
VH: QVQLKESGPGLVAPSQSLSITCTVSGFSLTSYGVHWVRQPPGKGLEWLGVIWAGGITNYNSALMSRLSISTDNSRSQVFLKMNSLQTDDTAMYYCARDWERDSSGPFPYWGQGTLVTVSA
VL: DIQMTQTTSSLSASLGDRVTISCSASQGISNYLNWYQQKPDGTVKLLIYYTSSLHSGVPSRFSGSGSGTDYSLTISNLEPEDIATYFCQQYSKLPWTFGGGTKLEIK
notes: also called Ab_54
In assay [1], B2 came in with a Kd of 20.4 nM, a koff of 0.00291 s⁻¹ and an on-rate (kon) of 143000 M⁻¹ s⁻¹. The IC50 in assay [6] is 369 nM. This molecule gave an ELISA signal in assay [3] of 2.23. This molecule also had an ELISA signal in assay [4] of 2.5. This molecule returned an ELISA signal in assay [5] of 0.042.

B3: Ab_006 (H5S14-5A5A) (antibody, V domains shown)
VH: DVQLQESGPGLVKPSQSLSLTCTVTGYSITSDFAWNWIRQFPGNKLEWMGYIVYSGSTSYNPSLKSRISITRDTSKNQFFLQLNSVTAEDTATYFCTRGMDYWGQGTSVTVSS
VL: QIVLTQSPAIISASLGEEVTLTCSASSSVSYMHWYQQKSGTSPKLLIYSTSNLASGVPSRFSGSGSGTFYSLTISSVEAEDAADYYCHQWSSYLTFGAGTKLELK
notes: also called Ab_6
As to B3, in assay [1], the affinity, expressed as Kd, was 19.6 nM; the koff turned out to be 0.00692 s⁻¹; the kon was found to be 353000 M⁻¹ s⁻¹. Also, the IC50 in assay [6] worked out at 24.6 nM. The same molecule had an ELISA signal in assay [3] of 2.69. Moreover, in assay [4], the ELISA signal was determined as 3.14. This molecule also came in with an ELISA signal in assay [5] of 0.043.

B4: Ab_071 (H5S20-3B7A) (antibody, V domains shown)
VH: QVQLQQSGAELVRPGTSVKISCKASGYTFTNSWLGWVKQRPGHGLEWIGDIYPGGGYNKYNEKFRGKATLTADTSSSTAYMQLSSLTSEDSAVYFCAGAMDYWGQGTSVTVSS
VL: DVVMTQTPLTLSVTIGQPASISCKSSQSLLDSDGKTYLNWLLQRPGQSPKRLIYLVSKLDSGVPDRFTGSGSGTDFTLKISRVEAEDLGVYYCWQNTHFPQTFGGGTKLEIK
notes: also called Ab_149; Ab_71
For B4, the Kd in assay [1] was 2.2 nM. Moreover, in assay [1], the koff was determined as 0.00093 s⁻¹. For the same molecule, the on-rate constant (kon) in assay [1] stood at 423000 M⁻¹ s⁻¹. In addition, the IC50 in assay [6] is 20.4 nM. For the same molecule, the ELISA signal was found to be 2.98 in assay [3], 3.08 in assay [4] and 0.047 in assay [5].

B5: Ab_029 (H5S15-14A14B) (antibody, V domains shown)
VH: EVQLQQSGPELVKPGASVKMSCKASGYTFTSYVMHWVKQKPGQGLEWIGYINPYNDDTNCNEKFKGKATLTSDKSSSTAYMELSRLTSEDSAVYYCAKARGYGSTFYYSMDYWGQGTSVTVSS
VL: DIVMTQSQKFMSTSVGDRVSVTCKASQNVGTNVAWYQQRPGQSPKSLIYSASYRYSGVPDRFTGSGSGTDFTLTISNVQSEDLADYFCQQYNSYPYTFGGGAKLEIK
notes: also called Ab_29
As to B5, in assay [1], the dissociation constant Kd is 47 nM, the koff amounted to 0.0403 s⁻¹ and the kon worked out at 858000 M⁻¹ s⁻¹. The IC50 in assay [2] was determined as 1.3 nM. This molecule registered an ELISA signal in assay [3] of 0.068. The molecule also returned an ELISA signal in assay [4] of 3.33. In assay [5], this molecule had an ELISA signal of 0.045.

B6: Ab_027 (H5S15-17A16A) (antibody, V domains shown)
VH: EVQLQQSGAELVKPGASVKLSCTASGFNIKDTYMHWVKQRPEQGLEWIGRIAPANGKTKFDPKFQGKATITADTSSNTAYLQLSSLTSEDTAVYYCANYYGRSNDWFVYWGQGTLVTVSA
VL: DVLMTQTPLSLPVSLGDQASISCRSSQSIVHSNGITYLEWYLQKPGQSPELLIYKVSNRFSGVPDRFSGSGSGTDFTLKISRVEAEDLGVYYCFQGSHVPLTFGAGTKLELK
notes: also called Ab_27
In the case of B6, in assay [1], the Kd worked out at 2.68 nM, the koff was 0.00171 s⁻¹ and the kon was determined as 639000 M⁻¹ s⁻¹. Also, in assay [2], the half-inhibitory concentration (IC50) was determined as 2.2 nM. The same molecule showed an ELISA signal in assay [3] of 0.064. In assay [4], this molecule yielded an ELISA signal of 3.13. Also, the ELISA signal in assay [5] was determined as 0.043.

Source of the values: US20240317871A1 (IMMUNOMIC THERAPEUTICS, published 2024).
